Source: US20040121326A1 (YEDA RESEARCH AND DEVELOPMENT, published 2004)
Ends that are not written are not given here.

Key:
[1] = target: T1, ErbB-4 expressed on transfected cells (CHO cells; 32D derivatives D4 and D24) (UniProt Q15303 26-1308, limits assumed); experiment: displacement of radiolabeled NRG-1β (5 ng/ml) from CHO cells expressing ErbB-4 by unlabeled ligand; reference unlabeled NRG-1
T1 construct: whole, on cells; also called surface-expressed ErbB-4
Text: (§1) Each data point represents the mean and range (bars) of two determinations.
(§2) To quantify the interaction, a ligand displacement analysis on ErbB-4-expressing CHO cells was undertaken.

[2] = target: T2, ErbB-1 expressed on transfected cells (32D derivative D1; CHO cells co-transfected with ErbB-4) (UniProt P00533 25-1210, limits assumed); experiment: in vitro studies with engineered cell lines expressing all four ErbB proteins (FIGS. 3 to 5)
T2 construct: whole, on cells; also called Epidermal Growth Factor Receptor
Experimental: (§3) The indicated derivative lines of 32D cells were tested for cell proliferation using the [3-(4,5-dimethylthiazol-2-yl)-2,5-diphenyl]tetrazolium bromide (MTT) assay. […] The MTT assay was performed 24 hours later.
(§4) The indicated derivatives of 32D cells were incubated for various time intervals in the absence of IL-3. […] For control, cells were incubated with medium conditioned by IL-3-producing cells (open triangles), or with no factor (open circles). The extent of cell proliferation was determined daily by using the colorimetric MTT assay. The data presented are the mean±S.D. of 4 determinations.

[3] = target: T3, ErbB-2 expressed on transfected cells (32D derivative D2; CHO cells co-transfected with ErbB-4) (UniProt P04626 23-1255, limits assumed); experiment: as above
T3 construct: whole, on cells
Experimental: as §3, §4

[4] = target: T4, ErbB-3 expressed on transfected cells (32D derivative D3; CHO cells co-transfected with ErbB-4) (UniProt P21860 20-1342, limits assumed); experiment: as above
T4 construct: whole, on cells
Experimental: as §3, §4

[5] = target: T1, ErbB-4 expressed on transfected cells …; experiment: displacement of radiolabeled NRG-1β (5 ng/ml) from CHO cells expressing ErbB-4 by unlabeled ligand, 2 hours at 4 C
Text: as §1, §2

T1 sequence (Q15303 26-1308 limits assumed): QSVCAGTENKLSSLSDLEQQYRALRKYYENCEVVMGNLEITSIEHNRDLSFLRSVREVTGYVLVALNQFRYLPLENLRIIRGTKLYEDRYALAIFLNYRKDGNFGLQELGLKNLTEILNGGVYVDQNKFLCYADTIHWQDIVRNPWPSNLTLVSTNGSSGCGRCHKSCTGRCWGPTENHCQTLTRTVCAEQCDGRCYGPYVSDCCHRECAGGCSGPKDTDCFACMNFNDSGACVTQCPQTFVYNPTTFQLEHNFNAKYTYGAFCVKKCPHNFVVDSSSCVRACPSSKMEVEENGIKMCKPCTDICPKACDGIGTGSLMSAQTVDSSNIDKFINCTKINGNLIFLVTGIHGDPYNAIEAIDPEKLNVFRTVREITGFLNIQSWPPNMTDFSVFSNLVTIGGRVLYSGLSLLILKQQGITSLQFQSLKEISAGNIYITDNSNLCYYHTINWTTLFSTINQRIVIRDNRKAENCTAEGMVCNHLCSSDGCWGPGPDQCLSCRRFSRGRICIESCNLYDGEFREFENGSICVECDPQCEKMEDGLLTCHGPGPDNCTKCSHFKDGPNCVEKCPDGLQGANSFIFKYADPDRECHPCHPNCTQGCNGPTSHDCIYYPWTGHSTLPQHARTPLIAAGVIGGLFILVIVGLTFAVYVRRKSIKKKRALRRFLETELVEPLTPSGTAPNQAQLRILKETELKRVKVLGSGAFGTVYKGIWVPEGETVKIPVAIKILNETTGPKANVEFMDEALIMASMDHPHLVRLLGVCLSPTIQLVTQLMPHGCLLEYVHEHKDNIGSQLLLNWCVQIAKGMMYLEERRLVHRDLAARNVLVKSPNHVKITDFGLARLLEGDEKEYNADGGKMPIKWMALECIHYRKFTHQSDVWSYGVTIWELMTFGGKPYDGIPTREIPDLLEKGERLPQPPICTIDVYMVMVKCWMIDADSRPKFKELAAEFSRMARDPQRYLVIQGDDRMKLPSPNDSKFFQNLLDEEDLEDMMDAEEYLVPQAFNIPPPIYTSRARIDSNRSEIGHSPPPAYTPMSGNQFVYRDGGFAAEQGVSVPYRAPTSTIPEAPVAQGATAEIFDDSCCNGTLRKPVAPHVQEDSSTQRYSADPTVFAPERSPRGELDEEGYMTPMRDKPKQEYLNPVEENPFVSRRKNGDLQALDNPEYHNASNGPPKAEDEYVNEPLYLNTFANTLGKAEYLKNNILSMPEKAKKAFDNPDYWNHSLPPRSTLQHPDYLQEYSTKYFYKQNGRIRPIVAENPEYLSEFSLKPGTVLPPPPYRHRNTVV
T4 sequence (P21860 20-1342 limits assumed): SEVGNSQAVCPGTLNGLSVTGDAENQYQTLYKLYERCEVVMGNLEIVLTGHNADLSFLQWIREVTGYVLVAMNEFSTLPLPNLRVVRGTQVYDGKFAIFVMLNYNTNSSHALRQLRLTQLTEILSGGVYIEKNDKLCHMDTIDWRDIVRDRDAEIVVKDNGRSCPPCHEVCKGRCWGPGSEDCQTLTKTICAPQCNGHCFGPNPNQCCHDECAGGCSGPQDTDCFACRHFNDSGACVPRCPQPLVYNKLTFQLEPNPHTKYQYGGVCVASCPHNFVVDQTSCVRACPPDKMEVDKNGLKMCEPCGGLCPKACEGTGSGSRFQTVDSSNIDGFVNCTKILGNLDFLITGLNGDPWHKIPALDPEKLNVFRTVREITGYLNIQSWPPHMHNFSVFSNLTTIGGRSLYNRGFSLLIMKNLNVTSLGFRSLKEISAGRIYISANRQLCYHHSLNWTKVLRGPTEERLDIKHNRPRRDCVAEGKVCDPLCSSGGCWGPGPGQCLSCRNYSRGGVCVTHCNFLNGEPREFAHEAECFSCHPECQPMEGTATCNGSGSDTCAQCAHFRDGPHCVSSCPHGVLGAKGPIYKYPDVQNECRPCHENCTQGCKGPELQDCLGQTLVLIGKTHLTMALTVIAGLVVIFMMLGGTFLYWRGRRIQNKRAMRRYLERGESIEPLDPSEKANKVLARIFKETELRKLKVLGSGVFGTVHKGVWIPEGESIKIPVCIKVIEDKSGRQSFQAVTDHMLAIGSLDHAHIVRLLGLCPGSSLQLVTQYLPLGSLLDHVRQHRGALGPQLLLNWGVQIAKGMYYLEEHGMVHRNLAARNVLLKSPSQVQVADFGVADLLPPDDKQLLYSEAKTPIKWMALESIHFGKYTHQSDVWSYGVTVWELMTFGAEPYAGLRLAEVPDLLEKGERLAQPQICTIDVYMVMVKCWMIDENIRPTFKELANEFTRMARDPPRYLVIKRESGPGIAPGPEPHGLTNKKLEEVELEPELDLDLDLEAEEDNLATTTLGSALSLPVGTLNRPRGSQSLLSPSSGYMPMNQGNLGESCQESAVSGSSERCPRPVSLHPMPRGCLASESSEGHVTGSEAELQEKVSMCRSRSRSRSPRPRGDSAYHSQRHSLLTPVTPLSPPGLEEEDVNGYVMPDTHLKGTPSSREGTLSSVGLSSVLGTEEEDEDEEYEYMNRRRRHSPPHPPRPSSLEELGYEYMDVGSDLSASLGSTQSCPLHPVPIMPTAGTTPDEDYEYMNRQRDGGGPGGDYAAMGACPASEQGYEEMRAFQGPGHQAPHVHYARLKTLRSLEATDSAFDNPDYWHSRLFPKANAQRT

B1: synthetic refolded mouse EGF-like domain of NRG-4 (residues 4 to 50, SEQ ID NO:2) (ligand)
peptide: DHEQPCGPRHRSFCLNGGICYVIPTIPSPFCRCIENYTGARCEEVFL
modifications: disulfide (positions not given here); also: three disulfide bonds, pairing not given here
notes: Chemically synthesised, folded and fully oxidized (three predicted disulfide bonds); also called Neuregulin-4; the novel synthetic peptide
fold lower binding affinity than NRG-1 [1]: ~8 fold
binding result [2]: no binding
binding result [3]: no binding
binding result [4]: no binding
Kd [5]: ~0.02 µM
